Tests used:
[1] = biological target: His-tagged ectodomain of human transferrin receptor 1 (hTfR1, R121-F760) (human) (UniProt P02786); experiment: SPR; binder on protein A chip, hTfR1 as analyte, in presence of 250 nM hTf
[2] = biological target: His-tagged ectodomain of human transferrin receptor 1 (hTfR1, R121-F760) (human) (UniProt P02786); experiment: SPR; binder on protein A chip, hTfR1 as analyte, without hTf
[3] = biological target: His-tagged ectodomain of human transferrin receptor 1 (hTfR1, R121-F760) (human) (UniProt P02786); experiment: SPR Biacore T200 single-cycle; hTfR1 captured on amine-coupled hTf, binder as analyte; 1:1 model

Chain of His-tagged ectodomain of human transferrin receptor 1 (hTfR1, R121-F760) (human) (P02786 other isoform, or with tags, fused parts or gaps limits assumed): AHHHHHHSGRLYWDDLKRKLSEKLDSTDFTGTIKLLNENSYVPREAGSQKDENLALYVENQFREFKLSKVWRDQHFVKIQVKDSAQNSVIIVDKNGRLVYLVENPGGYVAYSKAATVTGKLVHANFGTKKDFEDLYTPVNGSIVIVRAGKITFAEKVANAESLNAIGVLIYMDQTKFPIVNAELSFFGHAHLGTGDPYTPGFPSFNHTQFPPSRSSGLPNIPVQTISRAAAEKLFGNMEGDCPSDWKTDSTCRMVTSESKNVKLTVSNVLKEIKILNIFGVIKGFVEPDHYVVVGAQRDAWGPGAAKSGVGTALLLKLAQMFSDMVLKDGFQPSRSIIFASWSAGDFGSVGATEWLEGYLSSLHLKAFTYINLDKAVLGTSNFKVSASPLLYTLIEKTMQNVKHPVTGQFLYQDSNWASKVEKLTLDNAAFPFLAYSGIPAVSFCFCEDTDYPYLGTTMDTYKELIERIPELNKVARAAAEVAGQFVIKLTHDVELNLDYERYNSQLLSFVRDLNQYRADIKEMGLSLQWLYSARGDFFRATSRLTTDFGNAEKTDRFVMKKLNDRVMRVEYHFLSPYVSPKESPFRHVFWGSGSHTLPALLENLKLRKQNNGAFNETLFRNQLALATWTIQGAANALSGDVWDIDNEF

Kd [1]: 0.0834 nM | koff [1]: 5.77e-05 s⁻¹ | kon [1]: 692000 M⁻¹ s⁻¹ | Kd [2]: 0.101 nM | koff [2]: 8.87e-05 s⁻¹ | kon [2]: 882000 M⁻¹ s⁻¹ | Kd [3]: 0.0199 nM | koff [3]: 5.63e-05 s⁻¹ | kon [3]: 2.82e+06 M⁻¹ s⁻¹
Substance: Benchmark antibody 128.1 (BA1), full length human IgG1

Reference: patent US20260116990A1
